Reference: patent US8470576B2, “Group of novel enantioselective microbial nitrile hydratases with broad substrate specificity” (B.R.A.I.N. AG, priority 2006, dated 2013)

What was measured:
Type in all cases: biochemical
[1] = Enantioselectivity of NHases towards rac-2-phenylpropionitrile (washed cells, chiral HPLC); details: for E-value: kinetic resolution of rac-2-phenylpropionitrile; for enantiopreference: rac-2-phenylpropionitrile
Procedure: For the determination of enantioselectivity towards rac-mandelonitrile and 2-phenylpropionitrile 40-50 mg of washed cells were resuspended in 1 ml of 50 mM Tris/HCl pH 7.5. 100 μl of cell suspension were mixed with 800 μl 50 mM Tris/HCl pH 7.5 and incubated at 30° C. in a thermomixer at 1000 rpm. The biotransformation was started by addition of 100 μl of 10 mM rac-mandelonitrile or rac-2-phenylpropionitrile in 50 mM Tris/HCl pH 7.5. The reaction was stopped by addition of 100 μl 1M HCl after 1, 5 or 10 min. Cells were removed by centrifugation and the supernatant analysed by chiral HPLC for the presence of mandeloamide and phenylpropionamide, respectively. rac-Mandeloamide was analysed on a HPLC comprising a Surveyor 4 channel Pump, AutoSampler and UVNIS detector at 210 nm from Thermo Finnigan on a Nucleodex β-OH column (Macherey & Nagel) using 50% methanol/water:water (40:60) as mobile phase at a flow rate of 0.7 ml/min. The apparent enantiomeric ratio (Eapp) of the conversion of mandelonitrile was calculated according to Straathof and Jongejan for asymmetric catalysis (see example 9). In case of 2-phenylpropionamide, the samples were lyophilized and resuspended in n-hexane: 2-propanol (80:20). Prior to injection, the samples were additionally dried with sodium sulfate and were centrifugated at 16,000 g for 5 min. The supernatants were analyzed using a Chiracel OD column (Daicel) on a Spectra System (AS3000, P2000, UV2000 at 210 nm) from Thermo Separation Products with n-hexane: 2-propanol (80:20) as mobile phase at a flow rate of 0.5 ml/min. The enantiomeric ratio (E) of the conversion of PPN was calculated according to Chen et al.

[2] = Activity of enzyme samples after heterologous expression of NHases in E. coli towards PPN; details: 1 mM PPN; stopped after 1 min; host E. coli BL21 (DE3) (a) or E. coli Rosetta (DE3) (b)
Procedure: The amplified α-subunits were ligated to pET22b whereas the β-subunits were ligated to pET26b by use of the unique NdeI and XhoI restriction enzyme recognition sites. E. coli BL21 (DE3) or E. coli Rosetta (DE3) was cotransformed with the vectors carrying the genes for the corresponding α- and β-subunits of the NHases. Freshly transformed cells were grown over night at 37° C. in 5 ml LB-medium containing 100 μg/ml ampicillin, 25 μg/ml kanamycin and 2% (w/v) glucose. In case of E. coli Rosetta (DE3) 12.5 μg/ml chloramphenicol was additionally used. 1 ml of this culture was used to inoculate 100 ml of LB-medium containing 100 μg/ml ampicillin, 25 μg/ml kanamycin and 1% (w/v) glucose. Cells were incubated at 20° C. or 30° C. on a gyratory shaker at 100 rpm. At an optical density O.D.595=1 cells were induced by addition of 100 μg/ml IPTG. Simultaneously, CoCl2*6H2O was added in a concentration of 250 μM. When the P16K activator protein from the strain Brevibacterium linens was coexpressed with the corresponding NHase E. coli Rosetta (DE3) pET22—32B1α pET26—32B.1β pBBR5—32B_P16K was grown in LB-medium containing 100 μg/ml ampicillin, 25 μg/ml kanamycin, 12.5 μg/ml chloramphenicol and 10 μg/ml gentamycin and 1% (w/v) glucose. Samples were taken 24 h after induction.
(§1) If not otherwise indicated enzyme samples were prepared as follows: the cells from 1 ml of the culture were washed with 50 mM Tris/HCl pH 7.5 and resuspended in 750 μl of the same buffer. This suspension was incubated at 30° C. in a thermomixer at 1000 rpm. The biotransformation was started by addition of the substrate 2-phenylpropionitrile (PPN) in 50 mM Tris/HCl pH 7.5. The concentration of the substrate was 1 mM, if not otherwise stated. The reaction was stopped after 1 min, 5 min or 10 min as indicated by addition of 1 M HCl. Cells were removed by centrifugation and the supernatant analysed by HPLC for the presence of the corresponding amide. The HPLC analysis was carried out on a system comprising a Surveyor 4 channel Pump, AutoSampler and UVNIS detector at 210 nm from Thermo Finnigan on a Grom-Sil 1200DS-3 cp 3 μm (125×4.6 mm) reverse phase column. As mobile phase, acetonitrile and 0.3% H3PO4 were used in a ratio of 50:50 at a flow of 0.7 ml/min, respectively.

[3] = Dependence of NHase activity on the temperature; details: for optimal temperature: 1 mM PPN
Procedure: As enzyme samples cell free crude extracts were used either of the heterologously or homologously produced enzyme. The substrate (1 mM 2-phenylpropionitrile (PPN) in 50 mM Tris/HCl pH 7.5)) was equilibrated at the indicated temperatures before the reaction was started by addition of 50 μl of enzyme sample. The activity was determined as described in example 4.
As enzyme samples lyophilized cells or a cell free crude extract were used. The samples were equilibrated for 5 min at the indicated temperatures before the reaction was started by addition of PPN to a final concentration of 1 mM. The activity was determined as described in example 4.
as §1
The optimal temperatures for the NHases according to Seq ID No. 2 and 4 (Raoultella terrigena, 77.1) and Seq ID. No. 18 and 20 (Klebsiella oxytoca, 38.1.2) were determined to be at 45° C. (FIG. 23 and FIG. 24). At 55° C. a residual activity of about 20% was found for the enzyme according to Seq ID-No. 18 and 20 whereas at 60° C. no activity could be determined.

B1: NHase Seq ID No. 2 and 4: nitrile hydratase of Raoultella terrigena strain 77.1, α-subunit SEQ ID NO 2, β-subunit SEQ ID NO 4 (protein)
alpha: MSHKHDHDHTEPPVDIELRVRALESLLQEKGLIDPAALDELIDTYEHKVGPRNGAQVVARAWSDPEYKRRLMENATAAISELGFSGIQGEDMLVVENTPDVHNVTVCTLCSCYPWPVLGLPPVWYKSAPYRSRIVIDPRGVLAEFGLHIPESKEIRVWDSSAELRYLVLPERPAGTDGWSEAQLSELISRDSMIGTGVVTAP
beta: MNGIHDLGGMHGFGPIPTEENEPYFHHEWERRVFPMFASLFVGVHFNVDEFRHSIECMPPADYLQSSYYEHWLHAFETLLLAKGVITVDELWGGAKPTLCKPGTPVLTQDMVSMVVSTGGSARVSHDVAPRFRVGDRVRTKNFNPTTHTRLPRYARDKVGRIEIAHGVFITPDTAAHGLGEHPQHVYSVSFTAQELWGEPRPDNVFIDLWDDYLEEA
modifications: Raoultella terrigena, strain 77.1
E-value [1]: 47 | enantiopreference [1]: (S) | vol. activity [2]: 4.9 μkat/L cultur | optimal temperature [3]: 45 °C | residual activity at 60° C. [3]: 60-79%

B2: NHase Seq ID No. 18 and 20: nitrile hydratase of Klebsiella oxytoca strain 38.1.2, α-subunit SEQ ID NO 18, β-subunit SEQ ID NO 20 (protein)
alpha: MSHKHDHDHTQPPVDIELRVRALESLLQEKGLIDPAALDELIDTYEHKVGPRNGAQVVARAWSDPEYKRRLMENATAAIAELGFSGIQGEDMLVVENTPDVHNVTVCTLCSCYPWPVLGLPPVWYKSAPYRSRIVIDPRGVLAEFGLHIPENKEIRVWDSSAELRYLVLPERPAGTEGWSEAQLSELITRDSMIGTGVVTAP
beta: MNGIHDLGGMHGLGPIPTEENEPYFHHEWERRVFPLFASLFVGGHFNVDEFRHAIERMAPTEYLQSSYYEHWLHAFETLLLAKGVITVEELWGGAKPAPCKPGTPVLTQEMVSMVVSTGGSARVSHDVAPRFRVGDWVRTKNFNPTTHTRLPRYARDKVGRIEIAHGVFITPDTAAHGLGEHPQHVYSVSFTAQALWGEPRPDKVFIDLWDDYLEEA
modifications: Klebsiella oxytoca, strain 38.1.2
E-value [1]: 35 | enantiopreference [1]: (S) | spec. activity [2]: 9.6 μkat/g cdw | vol. activity [2]: 8.6 μkat/L cultur | optimal temperature [3]: 45 °C | residual activity at 55° C. ([3]; 55° C.): about 20% | residual activity at 60° C. [3]: no activity
